The source of these data is the Immune Epitope Database (IEDB).

In test [1] the target is HLA-A*23:01. The test is described as follows: IEDB peptide-MHC binding, purified MHC/competitive/fluorescence; filed as Kd, often an IC50 or EC50 that approximates it; ≥ and ≤ were set here for values at or beyond the usual limits of such assays.
For test [2], the target named is HLA-A*02:19. The test is described as above. As to conditions: source organism: Plasmodium yoelii yoelii.
Test [3] has as its target HLA-B*39:01. The test is described as above.
Test [4] addresses HLA-A*29:02. The description is as above. The following applies: source organism: Plasmodium yoelii yoelii.
In test [5] the target is HLA-B*18:01. Described as above.
The target of test [6] is HLA-A*03:01. The description is as above. As to conditions: source organism: Plasmodium yoelii yoelii.
Test [7] concerns the target HLA-B*15:01. The description is as above.
The target in test [8] is HLA-A*68:02. The description is as above. The following applies: source organism: Plasmodium yoelii yoelii.
Test [9] concerns the target HLA-B*57:01. Described as above.
The target of test [10] is HLA-A*02:03. The test is described as above. As to conditions: source organism: Plasmodium yoelii yoelii.
For test [11], the target named is HLA-A*02:01. The description is as above.
The target of test [12] is HLA-A*69:01. The test is described as above.
Test [13] addresses HLA-A*02:12. The description is as above. As to conditions: source organism: Plasmodium yoelii yoelii.
Test [14] addresses HLA-A*24:03. The test is described as above. The following applies: source organism: Plasmodium yoelii yoelii.
Test [15] concerns the target HLA-A*26:01. The test is described as above.
For test [16], the target named is HLA-B*46:01. Described as above.
The target of test [17] is HLA-B*51:01. The test is described as above.
In test [18] the target is HLA-B*27:03. The description is as above.
Test [19] concerns the target HLA-B*08:01. The test is described as above. As to conditions: source organism: Yersinia pestis Nepal516.
The target in test [20] is HLA-B*07:02. The test is described as above. The following applies: source organism: Yersinia pestis Nepal516.
Test [21] has as its target HLA-B*15:17. The description is as above. The following applies: source organism: Zaire ebolavirus.
Test [22] concerns the target HLA-A*02:19. The test is described as follows: IEDB peptide-MHC binding, purified MHC/direct/fluorescence; filed as Kd, often an IC50 or EC50 that approximates it; ≥ and ≤ were set here for values at or beyond the usual limits of such assays. As to conditions: source organism: Zaire ebolavirus.
The target in test [23] is HLA-A*23:01. The description is as above. The following applies: source organism: Zaire ebolavirus.
Test [24] addresses HLA-A*29:02. Described as above. As to conditions: source organism: Zaire ebolavirus.
Test [25] has as its target HLA-A*03:01. Described as above. As to conditions: source organism: Sudan ebolavirus - Maleo (1979).
Test [26] concerns the target HLA-A*02:16. Described as above. The following applies: source organism: Zaire ebolavirus.
Test [27] concerns the target HLA-A*68:02. The description is as above. The following applies: source organism: Zaire ebolavirus.
The target in test [28] is HLA-A*02:03. The test is described as above. As to conditions: source organism: Zaire ebolavirus.
The target in test [29] is HLA-A*02:12. Described as above. The following applies: source organism: Zaire ebolavirus.
For test [30], the target named is HLA-A*24:03. The description is as above. The following applies: source organism: Zaire ebolavirus.
Test [31] addresses HLA-A*02:11. The description is as above. The following applies: source organism: Zaire ebolavirus.
[32] abbreviates: source organism: Plasmodium yoelii yoelii.
Setting [33] is: source organism: Zaire ebolavirus.

Turning to TYQVYRYII, the equilibrium dissociation constant (Kd) (usually the constant that tells how readily two partners part at equilibrium) in test [1] (source organism: Yersinia enterocolitica (type O:8)) was not above 0.0001 µM.

Regarding KPPRGVLLY, the Kd in test [2] was not below 20 µM; in test [3] (setting [32]) it was not below 20 µM; in test [1] (setting [32]) it was not below 20 µM; in test [4] it was 0.115 µM; in test [5] (setting [32]) it was not below 20 µM; in test [6], not below 20 µM. Besides, the Kd in [7] (setting [32]), in test [8], in test [9] (setting [32]), in test [10], in test [11] (setting [32]) and in [12] (setting [32]) was not below 20 µM in each case. Also, the equilibrium dissociation constant (Kd) in test [13], in test [14], in [15] (setting [32]), in [16] (setting [32]), in test [17] (setting [32]) and in test [18] (setting [32]) was not below 20 µM throughout.

As to MPLKVQVCI, the dissociation constant (Kd) in test [19] amounted to 0.816 µM; in test [20], 0.304 µM; in [17] (source organism: Yersinia pestis Nepal516), 1.27 µM.

With HLSGWELAK, the Kd in test [3] (setting [33]), in test [5] (setting [33]), in [7] (setting [33]), in [21], in [9] (setting [33]) and in test [11] (setting [33]) was not below 20 µM each time. Moreover, the dissociation constant (Kd) in test [12] (setting [33]), in [15] (setting [33]), in test [16] (setting [33]), in test [17] (setting [33]), in test [18] (setting [33]) and in test [22] was not below 20 µM in each case. In addition, the Kd is not below 20 µM in [23]; not below 20 µM in [24]; 0.148 µM in test [25]; not below 20 µM in test [26]; not below 20 µM in test [27]; not below 20 µM in [28]. Further, the Kd in [29], in test [30] and in [31] was not below 20 µM throughout.
